Results taken from paper PMC6954390, “Negative cooperativity between Gemin2 and RNA provides insights into RNA selection and the SMN complex's release in snRNP assembly” (Nucleic Acids Research, 2019).

Columns and labels:
[1] = biological target: T1, Gemin2 (full-length) (human, UniProt O14893 1-280); experiment: crystal structure; Complexes A, B and C; hanging-drop vapor diffusion at 20°C, 1-6% PEG8000, 100 mM Tris-HCl pH 7.5-8.2; solved by molecular replacement with PDB 3S6N; conditions: both partners purified
T1 construct: Gemin2, human, full length; source: coexpressed with SMN_(Ge2BD) (pCDF-HT-Gemin2); not shown: His6, N-terminal, cleaved
T1 sequence (looked up): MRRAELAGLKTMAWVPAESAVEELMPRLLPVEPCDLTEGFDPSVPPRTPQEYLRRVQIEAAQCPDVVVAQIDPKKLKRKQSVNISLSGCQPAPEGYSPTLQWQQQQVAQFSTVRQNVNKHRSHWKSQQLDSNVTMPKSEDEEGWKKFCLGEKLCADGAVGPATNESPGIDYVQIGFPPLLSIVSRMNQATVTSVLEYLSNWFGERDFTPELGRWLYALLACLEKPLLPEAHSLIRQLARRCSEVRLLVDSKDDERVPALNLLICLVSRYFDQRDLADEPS

[2] = biological target: T2, Gemin2ΔN39 (human, UniProt O14893 40-280); experiment: as above; conditions: both partners purified
T2 construct: Gemin2, human, N-terminal 39 residues deleted (residues 40-280 left); also called Gemin2 residues 40–280; source: coexpressed with SMN_(Ge2BD) (pCDF-HT-Gemin2ΔN39); not shown: His6, N-terminal, cleaved
T2 sequence (looked up): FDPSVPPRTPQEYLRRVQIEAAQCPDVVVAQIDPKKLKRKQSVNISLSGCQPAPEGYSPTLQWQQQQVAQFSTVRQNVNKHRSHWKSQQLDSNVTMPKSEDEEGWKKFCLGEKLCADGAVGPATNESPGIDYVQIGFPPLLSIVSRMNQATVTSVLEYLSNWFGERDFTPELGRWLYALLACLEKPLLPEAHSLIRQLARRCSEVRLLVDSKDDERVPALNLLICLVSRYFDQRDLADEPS

B1: SMN_(Ge2BD), SMN residues 26–62 (domain or fragment, human, UniProt Q16637 26-62, looked up)
chain: GQSDDSDIWDDTALIKAYDKAVASFKHALKNGDICET
notes: also called SMN(26-62); SMN (26–62) peptide; source: coexpressed with Gemin2 or Gemin2ΔN39 (pET21-HMT-SMN_(Ge2BD)); not shown: His6, N-terminal, cleaved; MBP, N-terminal, cleaved
Question: Does B1 bind [1]?
Answer: Result: binds

Question: Does B1 bind [2]?
Answer: Result: binds
